The target in experiment [1] is T1, CS1 FC融合标签蛋白 (CS1 Fc fusion tag protein, expressed in 293F cells) (UniProt Q9NQ25).
T1 sequence (looked up): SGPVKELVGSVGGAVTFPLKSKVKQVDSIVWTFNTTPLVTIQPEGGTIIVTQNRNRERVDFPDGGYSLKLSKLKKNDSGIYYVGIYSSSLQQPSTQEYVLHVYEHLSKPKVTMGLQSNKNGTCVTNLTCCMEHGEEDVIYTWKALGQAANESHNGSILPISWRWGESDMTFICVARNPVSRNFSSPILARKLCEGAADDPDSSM
Briefly: ELISA, CS1 protein coated at 1 ug/ml, purified antibody at dilution 25K. Background: In an ELISA, binding on a coated surface is turned into a signal by an enzyme label.

Experiment [2] has as its target T1, CS1 FC融合标签蛋白 (CS1 Fc fusion tag protein, expressed in 293F cells). Description: ELISA, CS1 protein coated at 1 ug/ml, purified antibody at dilution 625K.
The target is the same in experiment [3]. Briefly: indirect ELISA, CS1 protein coated at 1 ug/ml, B cell culture supernatant, goat anti-rabbit IgG-HRP.
Experiment [4] has the same target. Description: ELISA, CS1 protein coated at 1 ug/ml, purified antibody at dilution 3125k.
For experiment [5] the target is unchanged. Description: ELISA, CS1 protein coated at 1 ug/ml, purified antibody at dilution 15625k.
Experiment [6] has the same target. Description: ELISA, CS1 protein coated at 1 ug/ml, purified antibody at dilution 125K.
Experiment [7] has the same target. Description: ELISA, CS1 protein coated at 1 ug/ml, purified antibody at dilution 5K.
The target is the same in experiment [8]. Briefly: ELISA, CS1 protein coated at 1 ug/ml, purified antibody at dilution 1K.

B1: 命名为1D12的兔重组单克隆抗体 (rabbit recombinant monoclonal antibody 1D12) (antibody, V domains shown)
VH: QSVEESGGRLVTPGTPLTLTCTVSGFSLSSYGMIWVRQAPGKGLEWIGSINTDGSTYYATWAKGRFTISRTSTTVDLKITSPTTEDTATYFCARGYPGYITDSYYYFNIWGPGTLVTVS
VL: DVVLTQTPASVEAAVRGTVTIKCQASQSISSYLSWYQQKPGQPPKLLIYRASTLESGVPSRFKGSGSGTEFTLTITDLECADAATYYCQCTYGTFHSSGYGFGGGTGVVVK
For B1, the ELISA OD in experiment [1] amounted to 3.45; in experiment [2], 0.522; in experiment [4], 0.209; in experiment [5], 0.124; in experiment [6], 2.02. This molecule returned an OD450值 in experiment [3] of 2.13 OD450.

B2: 命名为2B3的兔重组单克隆抗体 (rabbit recombinant monoclonal antibody 2B3) (antibody, V domains shown)
VH: QSVEESGGRLVTPGTPLTLTCTVSGFSLSAYAMGWFRQAPGKGLEYIGIISDSASTFYATWAKGRFTISRTSSTMVDLKMTSPTTEDTATYFCARAYYVVDNDSPFNMWGPGTVVTVS
VL: VMTQTPSSVSAAVGGTVTINCQASENIYSSLAWYQQKPGQPPKLLIYAASKLESGVPSRFKGSRSETDFTLTISDLECDDAATYYCQSYYDTGRASFAFGGGTEVVVK
For the molecule B2, the ELISA OD in experiment [1] is 2.91; in experiment [2], 0.276; in experiment [7] it was 3.95; in experiment [4], 0.161; in experiment [5], 0.108; in experiment [6], 0.98. In experiment [3], this molecule returned an OD450值 of 2.03 OD450.

B3: 命名为1H2的兔重组单克隆抗体 (rabbit recombinant monoclonal antibody 1H2) (antibody, V domains shown)
VH: QSVEESRGGLIKPTDTLTLTCTVSGFSLSNYGVSWVRQAPGNGLEYIGFIGTIGATLYANWAKSRSTITRNTNLNTVTLKMTSLTAADTATYFCARGIYGDIYVYAFDIWGPGTLVTVSS
VL: AAVLTQTPSPVSAAVGGTVTISCQASQSVRDNGDLAWYQQKPGQPPKLLIYDVSALASGVPSRFKGRGSGTQFTLTISDLECDDAATYSCAGGYIAGSDRWVFGGGTEVVVK
Consider B3, for which the ELISA OD in experiment [8] amounted to 3.95; in experiment [1], 2.39; in experiment [2] it was 0.32; in experiment [7], 3.83; in experiment [4], 0.153; in experiment [5], 0.11. The molecule also displayed an ELISA OD in experiment [6] of 1.18. The OD450值 in experiment [3] turned out to be 1.52 OD450.

These data come from CN115433278A.
